We go through two substances from paper PMC6240786.

For assay [1], the target named is Streptomyces clavuligerus cucumene synthase, wild-type (Streptomyces clavuligerus). The experiment in a line: crystal structure.
The target in assay [2] is T181N cucumene synthase (Streptomyces clavuligerus). The experiment in a line: crystal structure.

In assay [1], “Streptomyces clavuligerus cucumene synthase, wild-type (enzyme)” returned a stoichiometry N of 2. T181N cucumene synthase (enzyme) registered a stoichiometry N in assay [2] of 2.

As a reminder, the stoichiometry N is a count of units in the complex or per binding partner.
